Residue numbers refer to the chain shown, from its start. In names and notes the source's numbering stands.

The target in one series is YejK(Δ134–147) (E. coli) (UniProt P33920). In words: SEC. A general note: In gel filtration, larger molecules generally elute earlier.
The series “SEC” deals with the molecule itself. In words: SEC.
The series “cross-linking” deals with the molecule itself. Kind of series: cross-linking.
A further series deals with T1, YejK (Escherichia coli, UniProt P33920 1-335).
T1 sequence: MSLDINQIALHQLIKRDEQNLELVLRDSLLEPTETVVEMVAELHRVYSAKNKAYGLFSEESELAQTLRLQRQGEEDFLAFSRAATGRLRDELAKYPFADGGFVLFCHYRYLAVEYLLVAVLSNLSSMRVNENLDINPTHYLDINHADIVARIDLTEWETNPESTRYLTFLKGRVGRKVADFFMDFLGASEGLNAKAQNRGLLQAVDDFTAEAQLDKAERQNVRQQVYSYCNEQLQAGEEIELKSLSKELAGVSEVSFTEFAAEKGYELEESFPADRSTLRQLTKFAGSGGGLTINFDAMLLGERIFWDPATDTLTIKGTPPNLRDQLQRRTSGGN
In words: fluorescence polarization. In general terms: In fluorescence polarisation assays a small probe gives low polarisation when free and higher when bound to something large.

For the next series, the target named is T2, YejK(R276A-R280A-K284A) (Escherichia coli, UniProt P33920 1-335, R276A;R280A;K284A).
T2 sequence: T1 sequence with R276A, R280A, K284A
Kind of series: fluorescence polarization.

Series [1] deals with T3, YejK C-trunc, YejK(1-290) (Escherichia coli, UniProt P33920 1-290, del291-335).
T3 sequence: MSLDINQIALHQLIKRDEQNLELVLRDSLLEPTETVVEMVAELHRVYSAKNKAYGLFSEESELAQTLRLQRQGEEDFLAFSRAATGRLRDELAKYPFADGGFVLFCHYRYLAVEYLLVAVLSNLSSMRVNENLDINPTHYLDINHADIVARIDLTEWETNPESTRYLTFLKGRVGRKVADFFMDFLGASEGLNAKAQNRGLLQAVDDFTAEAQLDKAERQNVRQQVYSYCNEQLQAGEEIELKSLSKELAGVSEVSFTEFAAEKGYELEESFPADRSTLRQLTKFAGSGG
Kind of series: fluorescence polarization.

The term stoichiometry N denotes the number of molecules, sites or subunits per partner or assembly. In the series with YejK(Δ134–147) (E. coli), “YejK(Δ134–147) (from UniProt P33920 1-335) (natural protein)” had a stoichiometry N of 2.

B1: E. coli YejK protein (WT) (natural protein, UniProt P33920 1-335, looked up)
chain: T1 sequence
Take B1: in the series “SEC”, the “stoichiometry N” value was found to be 2.

B2: YejK(R173A-R176A-K177A) (natural protein, E. coli, UniProt P33920 1-335, looked up)
chain: T1 sequence with R173A, R176A, K177A
Regarding B2, the “stoichiometry N” value in the series “cross-linking” came to 2.

B3: YejK(R276A-R280A-K284A) (natural protein, E. coli, UniProt P33920 1-335, looked up)
chain: T1 sequence with R276A, R280A, K284A
For the molecule B3, the “stoichiometry N” value in “cross-linking” amounted to 2.

B4: AT-rich 20-mer (dsDNA)
DNA 1: ATTATTAATTAATTAATAAT
DNA 2: ATTATTAATTAATTAATAAT
In general, Kd refers to the concentration at which binding is half-saturated. A high value points to a looser complex. Turning to B4, the Kd was 6.8 ± 0.5 µM with YejK and 40 ± 5.6 µM with YejK(R276A-R280A-K284A). Also, the binding result in series [1] was “no binding”.

Source of the values: publication PMC11229321 (Nucleic Acids Research, 2024).
